From a protein production outcome set (Wang et al. 2014)

Assay: label from the status in PepcDB records

With “MPGFDYKFLEKPKRRLLCPLCGKPMREPVQVSTCGHRFCDTCLQEFLSEGVFKCPEDQLPLDYAKIYPDPELEVQVLGLPIRCIHSEEGCRWSGPLRHLQGHLNTCSFNVIPCPNRCPMKLSRRDLPAHLQHDCPKRRLKCEFCGCDFSGEAYESHEGMCPQESVYCENKCGARMMRRLLAQHATSECPKRTQPCTYCTKEFVFDTIQSHQYQCPRLPVACPNQCGVGTVAREDLPGHLKDSCNTALVLCPFKDSGCKHRCPKLAMARHVEESVKPHLAMMCALVSRQRQELQELRRELEELSVGSDGVLIWKIGSYGRRLQEAKAKPNLECFSPAFYTHKYGYKLQVSAFLNGNGSGEGTHLSLYIRVLPGAFDNLLEWPFARRVTFSLLDQSDPGLAKPQHVTETFHPDPNWKNFQKPGTWRGSLDESSLGFGYPKFISHQDIRKRNYVRDDAVFIRAAVELPRKILS” as the sequence, how does the protein production read?
Its protein production is “not failed”.

With “MPGFLTADLIRARLAPKDFQRGEEYLKDGRVLKAEWVADDEISGQVAGSAGRRYVQTITLENGLGGLSIVGYCSCPVGFACKHVAAVLLTLAREAEPVVPAWDGSFGARPAQAAVSEPTLDPALAEWIAAVAGFEEVGDPEAYPPAIRHRLIYVVGPQGEGGVPQNGEGRSESRGGGRVSAEIEVTLWSIAVLKDGQMSSVERRILSADALVRSPARPAYLRPSDLALVPRLAALRAPGGGNALLLPQISGSELFAAMVASGRCRWGGPDGPTLYPGAARRAKLVWRSDGEGWQRPAIEPEAMAPEAADPETAQPDIGQPYIAQPAIPEIGALDGEAVEAPTRTDPDDASPAPEDGESGQSPEAEAWDLRALPIEPPAYVDPRSGETGPLDLGLDPRLAARLLSAPPIPPTSVDAVRSRLGALLPAAVPVLPAPIDAQPLSVAPQPILRLLALRAVPRMRGAEMPGETTQALVARPCFAYDSVILPADSSEPAPLRMVGASLMRIERDFAAEGTALRQLDRIGPLRVAEALGRVRVEGGISADRLIAPPFLPRGEERERAVDFLRDGVPDLEEAGWRIEIDPDFPVRPVVADSQDWWGGLNAVGGLEGTVGGWLSVGLGVTIDGERVDLLPALLTLLGEGEDLVEREEDELLYLPLGDGRVLPVAVRRLRPIFHALHAVAVPDERAGPGVRLSGRDLGPLALLEEAGKPLGVVWEGAEGARDIARRLAVVGLREAVAPPKGLVGSLRAYQNEGLDWLQFLRANNLGGILADDMGLGKTLQTLAHILVEKESGRLNDPVLIVAPTSVLGAWRREAAQFAPGLRLVVLHGPERAAGFSQMADQDVVVTSYALVRHDLEVLKAQPWHMLVLDEAQTIRNPQTVQYKAVAALKARHRLFLTGTPLENHLGDLWALMDLLMPGLLGDGATFRRVFRGPIEKRGDGPRRRALAVRVRPFILRRTKDEVATDLPAKTEMIDMVELEGGQRDLYEAVRLAAHKAIREVLAEKGLARGRIHILAALTRLRQVCCDPRLVKGGPRKPPPSAKLDRLEEMLRDLVDEGRRTLVFSAFPSMLALVEERLAAASIPWVSLTGETRDRDTPVTRFQSGAVPVFLISLKAGGTGLTLTAADTVIHYDPWWNPAVEAQATDRAHRIGQDKPVFVHKLVAAGTVEERILALQDRKRGLLDGLFDGEAGPSSLLSEEVIEEILRPLG” as the sequence, how does the protein production read?
The protein production was “failed”.

With “MPGIDKLPIEETLEDSPQTRSLLGVFEEDATAISNYMNQLYQAMHRIYDAQNELSAATHLTSKLLKEYEKQRFPLGGDDEVMSSTLQQFSKVIDELSSCHAVLSTQLADAMMFPITQFKERDLKEILTLKEVFQIASNDHDAAINRYSRLSKKRENDKVKYEVTEDVYTSRKKQHQTMMHYFCALNTLQYKKKIALLEPLLGYMQAQISFFKMGSENLNEQLEEFLANIGTSVQNV” as the sequence, how does the protein production read?
The protein production was “failed”.

For “MPHFHFSWREKFSVFRMAAEPPEKLVGALVGGLRVLRYLSAAPAGVGVTRVARDLQLNSSTCYNFLKTLVYEGLVTFDESTKTYSIALGLVELAKGVLEQGAYVRLIHPHLEEIARAHRVTATLWQRTSNERVVLVDRADNDSSVRVHMSVGQRLPMYIAALGRCMAANAGLDRDQLEQRFNALRWDDKPPFDEYLAGVQEARKNGYATDAGHYVKGVSTASAAVLDAFGKPVMAISAVGFSAQFTGDALEQLGEDLHERAGRITRALSGGRAGADS”, which protein production is on record?
The protein production was “failed”.

For “MPIKKPCLKLNLDSLNVVRSEIPQMLSANERLKNNFNILYNQIRQYPAYYFKVASNVPTYSDICQSFSVMYQGFQIVNHSGDVFIHACRENPQSKGDFVGDKFHISIAREQVPLAFQILSGLLFSEDSPIDKWKITDMNRVSQQSRVGIGAQFTLYVKSDQECSQYSALLLHKIRQFIMCLESNLLRSKIAPGEYPASDVRPEDWKYVSYRNELRSDRDGSERQEQMLREEPFYRLMIE”, which protein production is on record?
The protein production was “failed”.
